In patent US20190374629A1:

Key:
basigin (human) [1] = target: basigin (human) (UniProt P35613); test: SPR (BIAcore T200), basigin amine-coupled to a CM5 chip; analyte PfRH5ΔNL lyophilised and resuspended before measurement, two-fold dilutions from a top concentration of 8 µM, global 1:1 fit [lower left panel (lyophilised]
basigin (human) [2] = target: basigin (human) (UniProt P35613); test: SPR, BIAcore T200, basigin amine-coupled on CM5 chip, RH5 as analyte 8-0.0625 µM, global 1:1 fit, 20 °C
basigin (human) [3] = target: basigin (human) (UniProt P35613); test: SPR (BIAcore T200), basigin amine-coupled to a CM5 chip; analyte PfRH5ΔNLHS1 lyophilised and resuspended before measurement, two-fold dilutions from a top concentration of 8 µM, global 1:1 fit [lower right panel (lyophilised]

Substance | Kd (basigin (human) [1]) [nM] | Kd (basigin (human) [2]) [nM] | Kd (basigin (human) [3]) [nM]
PfRH5ΔNL (from UniProt Q8IFM5 140-526) (ligand) | 310 | 290 | 
PfRH5ΔNLHS1 (from UniProt Q8IFM5 140-526) (ligand) |  | 410 | 300
